Drawing on US20250011363A1, “OPTIMIZED SHORTENED PEPTIDE THAT BINDS TO ACETYLCHOLINE RECEPTOR, AND USE THEREOF” (SKINMED CO., LTD., priority 2021, published 2025), this text covers Binding affinity (RU) for 51 molecules.

In the test the target is acetylcholine receptor. Kind of test: SPR, AchR immobilised on CM5 chip, peptide 10 uM. (Surface plasmon resonance follows binding to a sensor surface in real time, without labels.)

On to RRPCFR [6mer-1-977], for which the Binding affinity (RU) was 43 RU.
For the molecule RKTSIK [6mer-1-945], the Binding affinity (RU) was determined as 31 RU.
Under RKPAHK [6mer-1-974] stands 27 RU.
For RKFTVR [6mer-1-948] the value was 24 RU; for KRIWDK [6mer-1-965], 36 RU.
For RREDFR [6mer-1-968], the Binding affinity (RU) came out at 39 RU.
Turning to KRPHKK [6mer-1-983], the Binding affinity (RU) was found to be 38 RU.
Turning to KKESDK [6mer-1-984], the Binding affinity (RU) stood at 33 RU.
The molecule RREEDK [6mer-1-963] showed a Binding affinity (RU) of 29 RU.
The molecule KRTNGK [6mer-1-953] yielded a Binding affinity (RU) of 26 RU.
In turn, KRHDKK [6mer-1-952] came in with a Binding affinity (RU) of 28 RU.
In the case of KKNCDK [6mer-1-962], the Binding affinity (RU) turned out to be 42 RU.
RRCCAR [6mer-1-970] returned a Binding affinity (RU) of 38 RU.
The molecule KKPPDK [6mer-1-957] showed a Binding affinity (RU) of 43 RU.
Take KRATVR [6mer-1-989]: the Binding affinity (RU) amounted to 27 RU.
Take RKTPKK [6mer-1-941]: the Binding affinity (RU) was 29 RU.
Under KRYAGR [6mer-1-958] stands 43 RU; under KKIWFR [6mer-1-959], 36 RU.
As for KKCPFR [6mer-1-960], the Binding affinity (RU) was found to be 34 RU.
Under RKEMIK [6mer-1-976] stands 40 RU.
Under RKEDKR [6mer-1-950] stands 29 RU; under KRYPDR [6mer-1-988], 24 RU; under RRCEPR [6mer-1-946], 31 RU.
Molecule RKPEDR [6mer-1-940] registered a Binding affinity (RU) of 29 RU.
In turn, RRHTHK [6mer-1-972] gave a Binding affinity (RU) of 43 RU.
Molecule RKICAK [6mer-1-980] returned a Binding affinity (RU) of 33 RU.
Consider KKEHDK [6mer-1-943], for which the Binding affinity (RU) amounted to 43 RU.
For the molecule RKIEMK [6mer-1-971], the Binding affinity (RU) was 32 RU.
Turning to KRKSNK [6mer-1-956], the Binding affinity (RU) stood at 34 RU.
On to RKPAGK [6mer-1-944], for which the Binding affinity (RU) was 25 RU.
As to RKDDKK [6mer-1-981], the Binding affinity (RU) came to 27 RU.
Consider RRDHVK [6mer-1-973], for which the Binding affinity (RU) turned out to be 25 RU.
For KRCPDR [6mer-1-982] the value was 35 RU; for RRTEDR [6mer-1-967], 24 RU; for RRNSWK [6mer-1-966], 22 RU.
Under KRNDFK [6mer-1-939] stands 41 RU; under KRKSER [6mer-1-985], 22 RU; under RRYWEK [6mer-1-979], 42 RU.
On to RKECFK [6mer-1-955], for which the Binding affinity (RU) was found to be 23 RU.
Under RKDHWR [6mer-1-969] stands 33 RU; under KRTKGR [6mer-1-947], 31 RU; under RKASIK [6mer-1-975], 22 RU.
RKAMDK [6mer-1-951] registered a Binding affinity (RU) of 29 RU.
Take KKAEEK [6mer-1-986]: the Binding affinity (RU) amounted to 22 RU.
RRKSHK [6mer-1-978] returned a Binding affinity (RU) of 43 RU.
Molecule RKEMPR [6mer-1-949] showed a Binding affinity (RU) of 37 RU.
Under RRTEFK [6mer-1-987] stands 34 RU.
KKAKGR [6mer-1-954]: the Binding affinity (RU) is 41 RU.
RRMMVR [6mer-1-942] returned a Binding affinity (RU) of 37 RU.
The molecule RKFKNK [6mer-1-964] registered a Binding affinity (RU) of 42 RU.
In turn, RRTWAR [6mer-1-961] had a Binding affinity (RU) of 122 RU.
